In experiment [1] the target is hNKG2D-Fc (human NKG2D 78-216 with C-terminal long huFc-Flag tag) (human). The experiment can be described thus: SPR (BIACORE 8K, 37 C); hNKG2D-Fc captured on Protein A, soluble ligand injected.
Experiment [2] deals with T1, cynomolgus soluble ULBP2/6 (cULBP2/6) (cynomolgus, UniProt Q5VY80 28-217 (human entry), limits assumed).
T1 construct: also called cyno ULBP6; Cyno-cULBP2/6
T1 chain: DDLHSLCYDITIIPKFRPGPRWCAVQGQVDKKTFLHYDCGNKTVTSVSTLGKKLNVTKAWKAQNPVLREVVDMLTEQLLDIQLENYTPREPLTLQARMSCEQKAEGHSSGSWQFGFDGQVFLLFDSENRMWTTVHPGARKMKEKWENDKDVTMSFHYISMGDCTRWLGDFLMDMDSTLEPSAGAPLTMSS
Nature of the experiment: SPR (BIACORE). (Surface plasmon resonance follows binding to a sensor surface in real time, without labels.)

For experiment [3], the target named is T2, human soluble ULBP2 (hULBP2) (human, UniProt Q9BZM5 26-216).
T2 construct: also called sULBP2
T2 sequence: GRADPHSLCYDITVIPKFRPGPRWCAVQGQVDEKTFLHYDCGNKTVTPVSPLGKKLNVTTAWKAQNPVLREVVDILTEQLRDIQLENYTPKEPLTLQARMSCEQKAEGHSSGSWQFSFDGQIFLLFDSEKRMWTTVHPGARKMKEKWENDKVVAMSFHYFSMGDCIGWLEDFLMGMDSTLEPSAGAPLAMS
Nature of the experiment: SPR (BIACORE).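 Note: soluble human and cynomolgus NKG2D ligands injected as analytes in 3-fold dilution series spanning 0.01 to 50 nM at 37 °C, reference-subtracted sensorgrams fitted to a 1:1 Langmuir model.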

For experiment [4], the target named is T3, human soluble ULBP6 haplotype 02 (hULBP6_02) (human, UniProt Q5VY80 26-218).
T3 construct: also called sULBP6_02
T3 chain: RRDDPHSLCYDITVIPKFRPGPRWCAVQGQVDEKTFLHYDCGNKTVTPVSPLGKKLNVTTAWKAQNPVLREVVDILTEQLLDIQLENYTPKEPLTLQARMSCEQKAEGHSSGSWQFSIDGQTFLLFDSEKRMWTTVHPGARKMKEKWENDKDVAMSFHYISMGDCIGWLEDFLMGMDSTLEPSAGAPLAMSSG
Nature of the experiment: SPR (BIACORE).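 Note: soluble human and cynomolgus NKG2D ligands injected as analytes in 3-fold dilution series spanning 0.01 to 50 nM at 37 °C, reference-subtracted sensorgrams fitted to a 1:1 Langmuir model.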

For experiment [5], the target named is T4, human soluble ULBP5 (hULBP5) (human, UniProt Q6H3X3 26-218).
T4 construct: also called sULBP5
T4 sequence: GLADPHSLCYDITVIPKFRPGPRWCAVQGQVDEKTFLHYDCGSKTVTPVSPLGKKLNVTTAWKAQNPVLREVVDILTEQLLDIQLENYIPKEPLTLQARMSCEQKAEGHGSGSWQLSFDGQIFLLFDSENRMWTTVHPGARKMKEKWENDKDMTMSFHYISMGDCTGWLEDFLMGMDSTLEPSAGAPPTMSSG
The experiment can be described thus: SPR (BIACORE).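 Note: soluble human and cynomolgus NKG2D ligands injected as analytes in 3-fold dilution series spanning 0.01 to 50 nM at 37 °C, reference-subtracted sensorgrams fitted to a 1:1 Langmuir model.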

Experiment [6] has as its target T5, human soluble ULBP6 haplotype 01 (hULBP6_01) (human, UniProt Q5VY80 27-218, limits assumed).
T5 construct: also called sULBP6_01
T5 chain: T3 chain with R1G, L81R, T122I
Nature of the experiment: SPR (BIACORE).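 Note: soluble human and cynomolgus NKG2D ligands injected as analytes in 3-fold dilution series spanning 0.01 to 50 nM at 37 °C, reference-subtracted sensorgrams fitted to a 1:1 Langmuir model.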

Experiment [7] deals with T6, cynomolgus soluble ULBP5 (cULBP5) (cynomolgus).
T6 construct: also called Cyno-cULBP5
T6 chain: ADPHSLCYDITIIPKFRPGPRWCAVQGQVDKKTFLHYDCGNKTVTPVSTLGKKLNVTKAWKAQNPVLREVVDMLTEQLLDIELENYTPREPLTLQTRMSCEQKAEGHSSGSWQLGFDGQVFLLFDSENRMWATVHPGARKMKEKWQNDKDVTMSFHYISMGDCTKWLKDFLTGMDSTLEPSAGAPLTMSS
Nature of the experiment: SPR (BIACORE).

For experiment [8], the target named is T3, human soluble ULBP6 haplotype 02 …. Nature of the experiment: blocking ELISA; hNKG2D coated, antibody titrated with biotinylated hULBP6_02. On the technique in general: An ELISA detects its analyte on a solid surface through an enzyme-linked reagent.
Experiment [9] deals with T5, human soluble ULBP6 haplotype 01 …. Nature of the experiment: blocking ELISA; hNKG2D coated, antibody titrated with biotinylated hULBP6_01.
Experiment [10] has as its target T7, cell surface ULBP6_01 on COV644 cells (human, UniProt Q5VY80 27-218).
T7 construct: whole, on cells; also called cell surface ULBP6 (COV644)
T7 chain: T3 chain with R1G, L81R, T122I
The experiment can be described thus: flow cytometry; blocking of hNKG2D-mFc binding to COV644 cells, average of 2 replicates. For orientation: In flow cytometry, cells or beads pass a laser one at a time.

In experiment [11] the target is T8, human ULBP6 displayed on M13 phage (ULBP6-HA-pIII) (human, UniProt Q5VY80 26-218).
T8 construct: also called ULBP6 phage; not shown: M13 minor coat protein pIII
T8 sequence: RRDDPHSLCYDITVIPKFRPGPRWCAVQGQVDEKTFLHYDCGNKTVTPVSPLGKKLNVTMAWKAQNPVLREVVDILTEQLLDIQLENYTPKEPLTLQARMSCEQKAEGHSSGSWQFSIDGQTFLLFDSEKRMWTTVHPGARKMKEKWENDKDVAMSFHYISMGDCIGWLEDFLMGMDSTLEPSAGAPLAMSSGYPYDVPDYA
Nature of the experiment: phage ELISA: plate coated with the antibody, ULBP6 phage titrated in 3-fold steps from 1.0 O.D./mL, HRP anti-M13 detection, O.D. 450.

In experiment [12] the target is T9, cell surface ULBP6_02 on PANC02.13 cells (human, UniProt Q5VY80 26-218).
T9 construct: whole, on cells; also called cell surface ULBP6 (PANC02.13)
T9 chain: T3 chain
The experiment can be described thus: flow cytometry on PANC02.13 cells, anti-hFc-APC detection, average of 2 replicates.

Experiment [13] addresses T7, cell surface ULBP6_01 on COV644 cells. The experiment can be described thus: flow cytometry on COV644 cells, anti-hFc-APC detection, average of 2 replicates.
In experiment [14] the target is T1, cynomolgus soluble ULBP2/6 (cULBP2/6). Nature of the experiment: SPR (BIACORE 8K, 37 C); antibody captured on Protein A, soluble ULBP injected.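 Note: ligand injected as threefold dilution series in HBS-P (highest 10 or 50 nM), reference-cell and buffer-subtracted sensorgrams fitted with a 1:1 Langmuir model for on and off rates.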
The target in experiment [15] is T2, human soluble ULBP2 (hULBP2). The description is as above.
Experiment [16] addresses T3, human soluble ULBP6 haplotype 02 …. The description is as above.
Experiment [17] deals with T5, human soluble ULBP6 haplotype 01 …. Described as above.
Experiment [18] addresses T6, cynomolgus soluble ULBP5 (cULBP5). The description is as above.

Positions count from the first letter of the chain named. In names and notes the source's numbering stands.

These results are taken from patent US20250084172A1 (23ANDME, published 2025).

Chain of hNKG2D-Fc (human NKG2D 78-216 with C-terminal long huFc-Flag tag) (human) (chain, as listed by the source limits assumed): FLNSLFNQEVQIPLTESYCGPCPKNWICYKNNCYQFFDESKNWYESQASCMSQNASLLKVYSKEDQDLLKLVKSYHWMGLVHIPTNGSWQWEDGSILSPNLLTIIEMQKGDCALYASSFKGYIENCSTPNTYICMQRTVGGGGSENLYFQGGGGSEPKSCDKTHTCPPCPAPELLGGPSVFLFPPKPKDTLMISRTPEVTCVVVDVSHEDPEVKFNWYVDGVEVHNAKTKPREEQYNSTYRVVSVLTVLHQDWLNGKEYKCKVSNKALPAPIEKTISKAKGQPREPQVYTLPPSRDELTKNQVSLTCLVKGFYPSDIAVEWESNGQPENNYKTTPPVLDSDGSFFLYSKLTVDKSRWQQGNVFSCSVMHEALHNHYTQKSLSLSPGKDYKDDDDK

B1: human soluble MICB (hMICB) (ligand)
chain: AEPHSLRYNLMVLSQDESVQSGFLAEGHLDGQPFLRYDRQKRRAKPQGQWAEDVLGAKTWDTETEDLTENGQDLRRTLTHIKDQKGGLHSLQEIRVCEIHEDSSTRGSRHFYYDGELFLSQNLETQESTVPQSSRAQTLAMNVTNFWKEDAMKTKTHYRAMQADCLQKLQRYLKSGVAIRRTVPPMVNVTCSEVSEGNITVTCRASSFYPRNITLTWRQDGVSLSHNTQQWGDVLPDGNGTYQTWVATRIRQGEEQRFTCYMEHSGNHGTHPVPSGKVLVLQSQRTD
notes: the printed Uniprot number (29983) looks wrong; also called sMICB
With B1, in experiment [1], binding was characterised by a dissociation constant (Kd) of 118 nM.

B2: Humanized 6E1 (h6E1) (E-) (antibody, human IgG1, kappa, N297G, V domains shown)
VH: EVQLVQSGAEVKKPGASVKVSCKASGYTFTNYWMHWMRQAPGQGLEWLGRIHPSDSDTNYNQKFKGRATLTVDKSISTAYMELSRLRSDDTAVYYCAIEGTGKGYFDVWGRGTLVTVSS
VL: DIQMTQSPSSLSASVGDRVTITCKASQDIYSYLSWFQQKPGKSPKTLIYRANRLVDGVPSRFSGSGSGQDFTLTISSLQPEDFATYYCLHYDEFPLTFGGGTKVEIKR
notes: hIgG1 with N297G (effector negative)
In the case of B2, the Kd came out at 1.76 nM in [2]; 8.91 nM in [3]; 0.68 nM in experiment [4]; 8.7 nM in experiment [5]; 4.38 nM in experiment [6]; 1.03 nM in [7]. For the same molecule, the half-inhibitory concentration (IC50) in experiment [8] was 0.103 nM; in experiment [9] it was 10.2 nM.

B3: humanized 1D4 (h1D4), Fc version not stated (antibody, V domains shown)
VH: EIQLVQSGSELKKPGASVKVSCKASGYTFTEYPIHWVRQAPGQGFEWMGMIYTDTGEPTHAEEFKGRFVFSLDTSVSTAYLQISSLKAEDTAVYFCVRWYDGSSYIMDYWGQGTTVTVSS
VL: DIQMTQSPSSLSASVGDRVTITCKASQDINSYLSWFQQKPGKSPKTLIYRANRLVDGVPSRFSGSGSGQDYTFTISSLQPEDIATYYCLQYDEFPLTFGGGTKVEIK
notes: Recombinant humanized antibody, hIgG1 backbone with kappa light chain; also called hiD4; hu1D4
Take B3: the IC50 in experiment [10] was determined as 0.22 nM. For the same molecule, the “EC50 (read off the curve)” value in experiment [11] was ~0.006 O.D. (phage). Besides, the concentration giving a half-maximal response (EC50) in experiment [12] stood at 0.72 nM; in experiment [13], 1.4 nM. Further, the Kd in experiment [14] was found to be 0.151 nM; in [15] it was 0.642 nM; in experiment [16], 1.31 nM; in experiment [17], 0.422 nM; in experiment [18] it was 0.735 nM. The koff stood at 0.00133 s⁻¹ in experiment [14]; 0.00148 s⁻¹ in [15]; 0.00215 s⁻¹ in experiment [16]; 0.00114 s⁻¹ in [17]; 0.00105 s⁻¹ in [18]. The association rate constant (kon) was found to be 8.84e+06 M⁻¹ s⁻¹ in [14]; 2.31e+06 M⁻¹ s⁻¹ in experiment [15]; 1.64e+06 M⁻¹ s⁻¹ in experiment [16]; 2.69e+06 M⁻¹ s⁻¹ in experiment [17]; 1.43e+06 M⁻¹ s⁻¹ in [18].

B4: humanized 6E1 (h6E1), Fc version not stated (antibody, V domains shown)
VH: B2 VH
VL: B3 VL with N30Y, Y71F, F73L, I83F, Q90H
notes: Recombinant humanized antibody, hIgG1 backbone with kappa light chain; also called hu6E1; PUR3993
In experiment [10], B4 had an IC50 of 0.2 nM. The “EC50 (read off the curve)” value in experiment [11] is ~0.006 O.D. (phage). Further, the results for the EC50 in experiment [12] and in experiment [13] were 0.44 nM and 0.36 nM, respectively. Moreover, the Kd in [14] was 0.415 nM; in experiment [15] it was 10.7 nM; in [16], 0.939 nM; in [17], 5.24 nM; in experiment [18], 1.51 nM. For the same molecule, the koff in experiment [14] worked out at 0.0115 s⁻¹; in experiment [15] it was 0.0386 s⁻¹; in experiment [16], 0.00664 s⁻¹; in experiment [17], 0.0246 s⁻¹; in [18], 0.00922 s⁻¹. Also, the kon in experiment [14] stood at 2.77e+07 M⁻¹ s⁻¹; in experiment [15] it was 3.62e+06 M⁻¹ s⁻¹; in [16], 7.07e+06 M⁻¹ s⁻¹; in experiment [17], 4.7e+06 M⁻¹ s⁻¹; in experiment [18] it was 6.1e+06 M⁻¹ s⁻¹.

B5: Humanized 1D4 (h1D4) (E-) (antibody, human IgG1, kappa, N297G, V domains shown)
VH: B3 VH
VL: B2 VL with Y30N, F71Y, L73F, F83I, H90Q
notes: as for B2
In the case of B5, the dissociation constant Kd turned out to be 0.99 nM in [2]; 0.47 nM in experiment [3]; 1.06 nM in experiment [4]; 8.88 nM in experiment [5]; 0.41 nM in experiment [6]; 0.63 nM in experiment [7]. The IC50 was 0.265 nM in experiment [8] and 7.7 nM in experiment [9].

B6: humanized 8E11 (h8E11), Fc version not stated (antibody, V domains shown)
VH: EVQLVESGGGLVQPGGSLRLSCAASGFTFRTYGMHWVRQAPGKGLEWVAYISSGSGTIDYADTVKGRFTISRDNAKNSLYLQMNSLRAEDTAVYYCTRQTGAMDYWGQGTLVTVSS
VL: EIVLTQSPATLSLSPGERATLSCSASSSVSYMNWYQQKPGQSPRLWIYGISNLASGVPARFSGSGSGTDFTLTISSLEPEDFAVYYCQQRSSHPLTFGGGTKVEIK
notes: Recombinant humanized antibody, hIgG1 backbone with kappa light chain; also called PUR3926
B6: in [10], the half-maximal inhibitory concentration (IC50) came out at 0.11 nM. Moreover, the “EC50 (read off the curve)” value in experiment [11] was ~0.006 O.D. (phage). Besides, the EC50 in [12] amounted to 1.28 nM; in experiment [13] it was 1.29 nM. Moreover, the Kd in [14] turned out to be 11.4 nM; in experiment [15], 0.662 nM; in [16] it was 0.383 nM; in experiment [17] it was 0.331 nM; in experiment [18] it was 23.9 nM. Further, the dissociation rate constant (koff) turned out to be 0.0045 s⁻¹ in experiment [14]; 0.000542 s⁻¹ in [15]; 0.000459 s⁻¹ in [16]; 0.000492 s⁻¹ in experiment [17]; 0.00333 s⁻¹ in [18]. In addition, the kon in [14] was determined as 396000 M⁻¹ s⁻¹; in [15], 819000 M⁻¹ s⁻¹; in experiment [16] it was 1.2e+06 M⁻¹ s⁻¹; in experiment [17], 1.48e+06 M⁻¹ s⁻¹; in experiment [18] it was 139000 M⁻¹ s⁻¹.

As usually defined, the Kd is the free concentration of one partner at which half of the binding sites on the other are occupied at equilibrium, for simple one-to-one binding. Low readings indicate higher affinity, high ones lower affinity. For orientation: IC50 means the concentration needed to halve the response being measured. In general, EC50 refers to the concentration giving half of the maximal effect. As usually defined, the koff is the first-order rate constant of dissociation. A low value points to a long-lived complex. By kon is commonly meant the second-order rate constant of association. Low readings indicate slow association, high ones fast association.
